Reference: patent US7268212B2, “Ligand of G protein-coupled receptor protein and DNA thereof” (Takeda Pharmaceutical Company Limited, priority 2001, dated 2007)
Non-standard residues stand in square brackets, D forms with d. Residues, ends and D or L forms follow the SMILES beside them. No end group written: not given here. Trp(6-Br) = N[C@@H](Cc1c[nH]c2cc(Br)ccc12)C(=O)O; dTrp(6-Br) = N[C@H](Cc1c[nH]c2cc(Br)ccc12)C(=O)O

T1: GPR7 (Homo sapiens, UniProt P48145)
T1 sequence (P48145 1-328): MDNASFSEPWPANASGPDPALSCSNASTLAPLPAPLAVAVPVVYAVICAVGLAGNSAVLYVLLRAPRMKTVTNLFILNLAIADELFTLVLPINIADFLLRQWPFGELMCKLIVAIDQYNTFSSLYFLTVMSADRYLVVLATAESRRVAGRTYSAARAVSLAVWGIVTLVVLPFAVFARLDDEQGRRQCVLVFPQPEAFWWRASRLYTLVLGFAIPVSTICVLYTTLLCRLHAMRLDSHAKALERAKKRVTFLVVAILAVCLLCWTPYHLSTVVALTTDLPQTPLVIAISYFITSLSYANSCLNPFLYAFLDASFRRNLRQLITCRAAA

T2: bovine GPR7 (Bos taurus, UniProt Q8MJV3)
T2 construct: expressed in transfected cells; host or cells: CHO cells
T2 sequence (Q8MJV3 1-331): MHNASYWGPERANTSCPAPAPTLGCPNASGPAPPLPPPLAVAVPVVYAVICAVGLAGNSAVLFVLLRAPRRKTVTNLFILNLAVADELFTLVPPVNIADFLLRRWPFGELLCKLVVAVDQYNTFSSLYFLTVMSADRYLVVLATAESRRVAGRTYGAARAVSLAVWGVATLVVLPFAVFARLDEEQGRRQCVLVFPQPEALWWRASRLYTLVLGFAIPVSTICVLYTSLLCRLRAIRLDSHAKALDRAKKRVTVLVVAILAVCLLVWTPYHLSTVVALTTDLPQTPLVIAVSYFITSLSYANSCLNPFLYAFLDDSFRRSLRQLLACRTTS

T3: human GPR7 (human)
T3 chain: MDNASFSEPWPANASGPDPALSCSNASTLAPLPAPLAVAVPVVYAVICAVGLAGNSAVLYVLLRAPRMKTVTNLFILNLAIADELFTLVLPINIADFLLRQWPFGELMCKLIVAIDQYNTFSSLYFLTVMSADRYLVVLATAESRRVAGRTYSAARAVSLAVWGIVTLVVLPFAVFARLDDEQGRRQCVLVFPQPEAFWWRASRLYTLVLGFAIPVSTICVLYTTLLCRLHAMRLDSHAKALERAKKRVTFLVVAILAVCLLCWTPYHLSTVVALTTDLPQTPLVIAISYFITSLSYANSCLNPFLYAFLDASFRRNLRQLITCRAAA


What was measured:
GPR7 [1] = molecular target: T1, GPR7; assay: Intracellular cAMP production suppression activity on human GPR7-expressed CHO cells; type: cell-based; set-up: The synthetic primers were constructed so as to amplify the gene in the region to be translated to its receptor protein; expressed in transfected cells; host or cells: CHO cells, membrane fraction; conditions: forskolin-promoted cAMP production; receptor-expressed CHO cells; read-out: IC50 (nM) human GPR7, cAMP production inhibition
Protocol: (§1) The intracellular cAMP production suppression activity of peptides associated with various GPR7 ligands on CHO cells, in which human GPR7, bovine GPR8, human GPR8, human GPR8, bovine GPR8 and rat GPR7 were expressed, was examined. […] An assay buffer was prepared by adding 20 mM HEPES, pH7.4, 0.1% bovine serum albumin and 0.2 mM 3-isobutyl-1-methylxanthine (Sigma) to Hanks' Balanced Salt Solution (Gibco BRL). The plate incubated overnight was first washed twice with 150 μl of the assay buffer, and then exchanged with 150 μl of the assay buffer, followed by incubation for 30 minutes at 37° C. in 100% air. By adding 4 μM forskolin to the assay buffer, a buffer for sample dilution was prepared and the stock solution (10^−2 M of 10^−3 M) was diluted with the buffer thus obtained to prepare sample solutions in final concentrations of 10^−6 M, 10^−7 M, 10^−8 M, 10^−9 M and 10^−10 M. The plate incubated with the assay buffer for 30 minutes was taken out. After washing twice with the assay buffer, 50 μl of the assay buffer and then 50 μl of the sample solution were added thereto. Each sample was assayed in triplet. […] A difference between the maximum cAMP level and the cAMP level when each sample was added was calculated and the percentage of cAMP production level promoted by forskolin was worked out, which was made the cAMP production inhibition rate.

bovine GPR7 = molecular target: T2, bovine GPR7; assay: Intracellular cAMP production suppression activity on bovine GPR7-expressed CHO cells; type: cell-based; conditions: forskolin-promoted cAMP production; receptor-expressed CHO cells; read-out: IC50 (nM) bovine GPR7, cAMP production inhibition
Protocol: as §1

GPR7 [2] = molecular target: T1, GPR7; assay: Test on binding inhibition of various peptides against human GPR7-expressed CHO cell membrane fraction; set-up: The synthetic primers were constructed so as to amplify the gene in the region to be translated to its receptor protein; expressed in transfected cells; host or cells: CHO cells, membrane fraction; conditions: iodine-labeled hGPR7L-23; human GPR7-expressed CHO cell membrane fraction 1 μg/well; room temperature 1.5 hour
Protocol: A mixture of 20 μl of hGPR7L-23 (SEQ ID NO:1) (0.1 mM or 1 mM), 20 μl of lactoperoxidase (Sigma; prepared using 10 μg/ml and 0.1M HEPES-NaOH pH7.0), 20 μl of Idoine-125 (manufactured by Amersham, MS-30, 74 MBq), 20 μl of 0.005% hydrogen peroxide (manufactured by Wako Pure Chemical Industries, Ltd.) was allowed to stand at room temperature for 20 to 30 minutes. Then, 600 μl of 0.1% TFA was added to the mixture. The mixture was applied to reverse phase HPLC for separation and the peaks of the two'labeled products were fractionated in a tube charged with 1 mL of DMSO. Immediately, the fraction was stored on ice and an aliquot was provided for measurement of the radioactivity with a γ-counter. The remaining preparation was dispensed and stored at −30° C.
Human GPR7-expressed CHO cells were cultured in a flask. The flask was washed with 5 mM EDTA/PBS to strip the cells off. The cells were stripped off with 5 mM EDTA/PBS and centrifuged for recovery. The recovered cells were suspended in 25 mL of a buffer for preparing membrane fraction (50 mM Tris-HCl, pH7.5, 5 mM EDTA, 0.1% bovine serum albumin (manufactured by Sigma), 0.5 mM PMSF (manufactured by Wako Pure Chemical Industries, Ltd.), 20 μg/mL leupeptin (manufactured by Peptide Research Institute), 0.1 μg/mL pepstatin A (manufactured by Peptide Research Institute) and 4 μg/mL E-64 (manufactured by Peptide Research Institute)), followed by homogenization on ice using a polytron (12,000 rpm, 15 seconds×3 times). The homogenate was centrifuged at 4° C. under 1,000 g for 10 minutes with a high speed cooling centrifuge to recover the supernatant. […] The pellets were recovered and suspended in a small quantity of the buffer for preparing membrane fractions. […]
Using the assay buffer, the human GPR7-expressed CHO cell membrane fraction was diluted in a final concentration of 1 μg/well and iodine-labeled hGPR7L-23 (SEQ ID NO:1) was diluted in a final concentration of […]. […] After 50 μl of a liquid scintillator was dispensed thereto, the radioactivity was counted on a Top Count (Packard) and the data was analyzed in triplet (FIG. 33). […]

GPR7 [3] = molecular target: T1, GPR7; conditions: reported by O'Dowd, B. F. et al.; cited from earlier work
human GPR7 = molecular target: T3, human GPR7; assay: competition, radioligand

Row | Molecule | IC50 (human GPR7) [nM] | other results
1 | WYKPAAGSHHYSVGRAAGLLSSFH [Trp1-rat GPR7L(24)] | – | IC50 (GPR7 [1]): 0.31 nM
2 | WYKPAAGSHHYSVGRAAGLLSSFHRFPST [Trp1-rat GPR7L(29)] | – | IC50 (bovine GPR7): 1.2 nM; IC50 (GPR7 [2]): 0.34 nM
3 | CC(C)C[C@H](NC(=O)CNC(=O)[C@H](C)NC(=O)[C@H](C)NC(=O)[C@H](CCCNC(=N)N)NC(=O)CNC(=O)[C@@H](NC(=O)[C@H](CO)NC(=O)[C@H](Cc1ccc(O)cc1)NC(=O)[C@H](Cc1ccc(O)cc1)NC(=O)CNC(=O)[C@H](CCC(N)=O)NC(=O)CNC(=O)[C@H](C)NC(=O)[C@@H](NC(=O)[C@@H]1CCCN1C(=O)[C@H](CCCCN)NC(=O)[C@H](Cc1ccc(O)cc1)NC(=O)[C@@H](N)Cc1c[nH]c2cc(Br)ccc12)[C@@H](C)O)C(C)C)C(=O)N[C@@H](CC(C)C)C(=O)N[C@@H](CO)C(=O)NCC(=O)N[C@@H](Cc1ccccc1)C(=O)N[C@@H](Cc1c[nH]cn1)C(=O)N[C@@H](CCCNC(=N)N)C(=O)N[C@@H](CO)C(=O)N1CCC[C@H]1C(=O)N[C@@H](Cc1ccc(O)cc1)C(=O)N[C@@H](C)C(=O)O [LTrp(6Br)1-bovine GPR7L(29)] (H-[Trp(6-Br)]YKPTAGQGYYSVGRAAGLLSGFHRSPYA-OH; N-terminus and C-terminus assumed) | – | IC50 (GPR7 [2]): 0.34 nM; IC50 (GPR7 [1]): 0.58 nM
4 | β-endorphin | – | inhibition of [3H] bremazocine binding to the membrane fraction of GPR7 (GPR7 [3]): inhibited
5 | WYKHVASPRYHTVGRAAGLLMGL [Trp1-human GPR8L(23)] | 0.4 | –
6 | [Trp(6-Br)]YKPTAGQGYYSVGRAAGLLSGFHRSPYA [LTrp(6Br)1-bovine GPR7L(29)] | 0.34 | –
7 | WYKPTAGQGYYSVGRAAGLLSGFHRSPYA [Trp1-bovine GPR7L(29)] | 0.31 | –
8 | [dTrp(6-Br)]YKPTAGQGYYSVGRAAGLLSGFHRSPYA [DTrp(6Br)1-bovine GPR7L(29)] | 6.1 | –
9 | WYKPAAGHSSYSVGRAAGLLSGLRRSPYA [Trp1-human GPR7L(29)] | 0.33 | –
10 | WYKPAAGSHHYSVGRAAGLLSSFH [Trp1-rat GPR7L(24)] | 0.3 | –
11 | WYKPAAGHSSYSVGRAAGLLSGLRRSPYA (not fully specified (residue 1); printed as D-Trp(6Br)-Tyr-Lys-Pro-Ala-Ala-Gly-His-Ser-Ser-Tyr-Ser-Val-Gly-Arg-Ala-Ala-Gly-Leu-Leu-Ser-Gly-Leu-Arg-Arg-Ser-Pro-Tyr-Ala) [DTrp(6Br)1-human GPR7L(29)] | 13 | –
12 | WYKPAAGHSSYSVGRAAGLLSGL [Trp1-human GPR7L(23)] | 1.6 | –
13 | [Trp(6-Br)]YKPAAGHSSYSVGRAAGLLSGLRRSPYA [LTrp(6Br)1-human GPR7L(29)] | 0.32 | –
14 | WYKPAAGSHHYSVGRAAGLLSSFHRFPST [Trp1-rat GPR7L(29)] | 0.34 | –
